What all share (assay): EnzChek phosphate release assay (PNP-coupled, A360)
Substrate in data set [1]: Nc1ncnc2c1ncn2[C@@H]1O[C@H](COP(=O)(O)OP(=O)(O)OP(=O)(O)O)[C@@H](O)[C@H]1O
It is filed as biochemical, Nostoc sp. PCC 7120 = FACHB-418. The note with it: 37 °C, pH 7.5, 5 mM MgCl2, 15 μM enzyme, 0-2 mM ATP.

Substrate in data set [2]: Nc1ncnc2c1ncn2[C@@H]1O[C@H](COP(=O)(O)OP(=O)(O)OP(=O)(O)O)[C@@H](O)[C@H]1O
It is filed as biochemical, Saccharomyces cerevisiae. The note with it: 37 °C, pH 7.5, 5 mM MgCl2, 2.5 μM enzyme, 0-2 mM ATP.

Substrate in data set [3]: Nc1ncnc2c1ncn2[C@@H]1O[C@H](COP(=O)(O)OP(=O)(O)OP(=O)(O)O)[C@@H](O)[C@H]1O
It is filed as biochemical, Arabidopsis thaliana. The note with it: 37 °C, pH 7.5, 5 mM MgCl2, 15 μM enzyme, 0-2 mM ATP.

Km and kcat data for 3 proteins are collected here from article PMC10248533, “Structures of Get3d reveal a distinct architecture associated with the emergence of photosynthesis” (The Journal of Biological Chemistry, 2023).

B1: NosGet3d (Nostoc sp. PCC 7120 = FACHB-418) (protein)
chain: MALILTFLGKSGVARTKIAIAAAKLLASQGKRVLLAGLAEPVLPLLLEQTLTPDPQQIAPNLEVVQFQSSVLLERNWEEVKKLEAQYLRTPIIKEVYGQELVVLPGMDSALALNAIREYDASGKYDAIVYDGTGDAFTLRMLGLPESLSWYVRRFRQLFVNSDLGKTIAESPLIQPLISSFFNVNWTADNFAQPTNQVNNFLDKGKEALADPKRVAAFLVTTADPLEVVSVRYLWGSAQQIGLTIGGVIQVSSQTEGDLSAEFTPLSVTVVPDVTKGDWQPLIDALPNFVEQAEQAPKPITIDTHNRQVRLFLPGFDKKQVKLTQYGPEVTVEAGDQRRNIFLPPALSGRPITGAKFQNNYLIISF
notes: N-terminal His6-TEV tag (pET33b), expressed in E. coli; homodimer
As for B1, in data set [1], the Km was 353 ± 10 µM and the kcat was found to be 0.00467 ± 0.00017 s⁻¹.

B2: ScGet3 (yeast Get3) (Saccharomyces cerevisiae S288C) (protein)
chain: MDLTVEPNLHSLITSTTHKWIFVGGKGGVGKTTSSCSIAIQMALSQPNKQFLLISTDPAHNLSDAFGEKFGKDARKVTGMNNLSCMEIDPSAALKDMNDMAVSRANNNGSDGQGDDLGSLLQGGALADLTGSIPGIDEALSFMEVMKHIKRQEQGEGETFDTVIFDTAPTGHTLRFLQLPNTLSKLLEKFGEITNKLGPMLNSFMGAGNVDISGKLNELKANVETIRQQFTDPDLTTFVCVCISEFLSLYETERLIQELISYDMDVNSIIVNQLLFAENDQEHNCKRCQARWKMQKKYLDQIDELYEDFHVVKMPLCAGEIRGLNNLTKFSQFLNKEYNPITDGKVIYELEDKE
notes: N-terminal His6-TEV tag (pET33b), expressed in E. coli
With B2, in data set [2], the Michaelis-Menten constant (Km) is 48 ± 2 µM and the turnover number (kcat) was 0.045 ± 0.00033 s⁻¹.

B3: AtGet3d (Arabidopsis thaliana) (protein)
chain: TKFVTFLGKGGSGKTTAAVFAAQHYALAGLSTCLVIHNQDPSAEFLLGSKIGTSPTLINDNLSVIRLETTKMLLEPLKQLKQADARLNMTQGVLEGVVGEELGVLPGMDSIFSMLELERLVGFFRQATRKNHKGKPFDVIIYDGISTEETLRMIGLSSKTRLYAKYLRSLAEKTDLGRLTSPSIMRFVDESMNINSNKSPFDGMTSPAMWDTLERFLETGASAWRDPERFRSFLVMDPNNPMSVKAALRYWGCTVQAGSHVSGAFAISSSHLTSQIPKADFVPLPFASASVPFTITGLDWDKILLDQANSSIRELLSETVSHGTSLTQTVMFDTAKKLVTLFMPGFEKSEIKLYQYRGGSELLIEAGDQRRVIHLPSQIQGKVGGAKFVDRSLIVTMR
notes: delta1-57 (chloroplast transit peptide removed), expressed in E. coli; ATPase assay: N-terminal His6-3C tag; crystal: pET22b(+) NdeI-XhoI construct; homodimer
Regarding B3, in data set [3], the Km was 351 ± 4 µM and the catalytic constant (kcat) was 0.0183 ± 0.00017 s⁻¹.

By Km is commonly meant the concentration of substrate that gives half-maximal velocity. Usually kcat stands for the maximal rate divided by the concentration of active sites.
